Source: paper PMC8291048

Target: PKM2, endogenous in T24 cells (human (endogenous in T24)) (UniProt P14618)
Assay: cross-linking; T24 cells (LV-DPYSL2, siDPYSL2 or negative control) lysed in 0.5% Triton X-100 sodium phosphate buffer pH 7.3; supernatant treated with 1% formaldehyde for 30 min; Western blot for PKM2 monomer, dimer and tetramer

- stoichiometry N: 2
Substance: PKM2, endogenous in T24 cells (from UniProt P14618 1-531) (enzyme; other documents disagree on this pair)
